Data on nine molecules can be found in article PMC12865031, “Mechanistic insights into PCBP1-driven unfolding of selected i-motif DNA at G1/S checkpoint”.

In data set [1] the target is T1, PCBP1 (wild type) (UniProt Q15365 1-356). Briefly: EMSA; pH 6.4, i-motif; MST: 20 mM MES pH 6.4, phosphate pH 7.0 or Tris-Cl pH 8.0, 100 mM NaCl, 25 C; EMSA: 20 mM Bis-Tris pH 6.4 or Tris-HCl pH 8.0, 100 mM NaCl, 0.25 mg/mL BSA, 25 C; NMR/CD: 20 mM MES pH 6.4, 100 mM NaCl; footprinting 20 mM MES pH 6.4, 50 mM NaCl. The note with it: protein: recombinant; tags: His tag (pET-His1a), removed by TEV; label: 5'-Cy5 (EMSA, MST); intramolecular i-motif at pH 6.4; unfolded at pH 7.0 and 8.0. Background: A gel shift assay detects complexes by their altered migration in electrophoresis.

Data set [2] has as its target T2, PCBP1 KH1+2;PCBP1 KH3 (Homo sapiens?;Homo sapiens?, UniProt Q15365;Q15365 1-169;269-356, |). Nature of the data set: bromine footprinting; pH 6.4; cleavage enhanced across all Cs; MST: 20 mM MES pH 6.4, phosphate pH 7.0 or Tris-Cl pH 8.0, 100 mM NaCl, 25 C; EMSA: 20 mM Bis-Tris pH 6.4 or Tris-HCl pH 8.0, 100 mM NaCl, 0.25 mg/mL BSA, 25 C; NMR/CD: 20 mM MES pH 6.4, 100 mM NaCl; footprinting 20 mM MES pH 6.4, 50 mM NaCl. The note with it: protein: recombinant;recombinant, tags: His tag (pET-His1a), removed by TEV;His tag (pET-His1a), copies: 1;1, label: 3'-Cy5, intramolecular i-motif at pH 6.4.

The target of data set [3] is T1, PCBP1 (wild type). Nature of the data set: bromine footprinting; pH 6.4; enhanced cleavage across all Cs; MST: 20 mM MES pH 6.4, phosphate pH 7.0 or Tris-Cl pH 8.0, 100 mM NaCl, 25 C; EMSA: 20 mM Bis-Tris pH 6.4 or Tris-HCl pH 8.0, 100 mM NaCl, 0.25 mg/mL BSA, 25 C; NMR/CD: 20 mM MES pH 6.4, 100 mM NaCl; footprinting 20 mM MES pH 6.4, 50 mM NaCl. The conditions noted are these: protein: recombinant; tags: His tag (pET-His1a), removed by TEV; label: 3'-Cy5; intramolecular i-motif at pH 6.4.

Data set [4] deals with T3, PCBP1 KH1+2 (UniProt Q15365 1-169). Briefly: bromine footprinting; pH 6.4; increased cleavage at C3-C5 and C12-C14; MST: 20 mM MES pH 6.4, phosphate pH 7.0 or Tris-Cl pH 8.0, 100 mM NaCl, 25 C; EMSA: 20 mM Bis-Tris pH 6.4 or Tris-HCl pH 8.0, 100 mM NaCl, 0.25 mg/mL BSA, 25 C; NMR/CD: 20 mM MES pH 6.4, 100 mM NaCl; footprinting 20 mM MES pH 6.4, 50 mM NaCl. The conditions noted are these: protein: recombinant; tags: His tag (pET-His1a), removed by TEV; label: 3'-Cy5; intramolecular i-motif at pH 6.4.

Data set [5] addresses T3, PCBP1 KH1+2. Nature of the data set: MST; pH 6.4; no structural selectivity; MST: 20 mM MES pH 6.4, phosphate pH 7.0 or Tris-Cl pH 8.0, 100 mM NaCl, 25 C; EMSA: 20 mM Bis-Tris pH 6.4 or Tris-HCl pH 8.0, 100 mM NaCl, 0.25 mg/mL BSA, 25 C; NMR/CD: 20 mM MES pH 6.4, 100 mM NaCl; footprinting 20 mM MES pH 6.4, 50 mM NaCl. The note with it: protein: recombinant; tags: His tag (pET-His1a), removed by TEV; label: 5'-Cy5 (EMSA, MST); intramolecular i-motif at pH 6.4; unfolded at pH 7.0 and 8.0.

Data set [6] has as its target T2, PCBP1 KH1+2;PCBP1 KH3. Nature of the data set: MST; pH 6.4; affinity and selectivity for i-motif restored; MST: 20 mM MES pH 6.4, phosphate pH 7.0 or Tris-Cl pH 8.0, 100 mM NaCl, 25 C; EMSA: 20 mM Bis-Tris pH 6.4 or Tris-HCl pH 8.0, 100 mM NaCl, 0.25 mg/mL BSA, 25 C; NMR/CD: 20 mM MES pH 6.4, 100 mM NaCl; footprinting 20 mM MES pH 6.4, 50 mM NaCl. The conditions noted are these: protein: recombinant;recombinant, tags: His tag (pET-His1a), removed by TEV;His tag (pET-His1a), copies: 1;1, label: 5'-Cy5 (EMSA, MST), intramolecular i-motif at pH 6.4, unfolded at pH 7.0 and 8.0.

In data set [7] the target is T1, PCBP1 (wild type). Briefly: EMSA; pH 6.4; MST: 20 mM MES pH 6.4, phosphate pH 7.0 or Tris-Cl pH 8.0, 100 mM NaCl, 25 C; EMSA: 20 mM Bis-Tris pH 6.4 or Tris-HCl pH 8.0, 100 mM NaCl, 0.25 mg/mL BSA, 25 C; NMR/CD: 20 mM MES pH 6.4, 100 mM NaCl; footprinting 20 mM MES pH 6.4, 50 mM NaCl. The conditions noted are these: protein: recombinant; tags: His tag (pET-His1a), removed by TEV; label: 5'-Cy5 (EMSA); unfolded.

Data set [8] concerns the target T1, PCBP1 (wild type). Nature of the data set: CD titration; stronger blue-shift than wild-type BCL2; MST: 20 mM MES pH 6.4, phosphate pH 7.0 or Tris-Cl pH 8.0, 100 mM NaCl, 25 C; EMSA: 20 mM Bis-Tris pH 6.4 or Tris-HCl pH 8.0, 100 mM NaCl, 0.25 mg/mL BSA, 25 C; NMR/CD: 20 mM MES pH 6.4, 100 mM NaCl; footprinting 20 mM MES pH 6.4, 50 mM NaCl. The note with it: protein: recombinant; tags: His tag (pET-His1a), removed by TEV; i-motif without hairpin.

Data set [9] deals with T1, PCBP1 (wild type). Briefly: MST; pH 6.4, i-motif; stronger than pH 8.0; MST: 20 mM MES pH 6.4, phosphate pH 7.0 or Tris-Cl pH 8.0, 100 mM NaCl, 25 C; EMSA: 20 mM Bis-Tris pH 6.4 or Tris-HCl pH 8.0, 100 mM NaCl, 0.25 mg/mL BSA, 25 C; NMR/CD: 20 mM MES pH 6.4, 100 mM NaCl; footprinting 20 mM MES pH 6.4, 50 mM NaCl. The note with it: protein: recombinant; tags: His tag (pET-His1a), removed by TEV; label: 5'-Cy5 (MST); i-motif at pH 6.4 and 7.0; unfolded at pH 8.0.

The target of data set [10] is T1, PCBP1 (wild type). Briefly: EMSA; pH 6.4, i-motif; two shifted bands; MST: 20 mM MES pH 6.4, phosphate pH 7.0 or Tris-Cl pH 8.0, 100 mM NaCl, 25 C; EMSA: 20 mM Bis-Tris pH 6.4 or Tris-HCl pH 8.0, 100 mM NaCl, 0.25 mg/mL BSA, 25 C; NMR/CD: 20 mM MES pH 6.4, 100 mM NaCl; footprinting 20 mM MES pH 6.4, 50 mM NaCl. The note with it: protein: recombinant; tags: His tag (pET-His1a), removed by TEV; label: 5'-Cy5 (EMSA, MST); intramolecular i-motif with co-existing hairpin at pH 6.4; unfolded at pH 7.0 and 8.0.

Changes are numbered by the printed parent chain.

T1 sequence (Q15365 whole entry): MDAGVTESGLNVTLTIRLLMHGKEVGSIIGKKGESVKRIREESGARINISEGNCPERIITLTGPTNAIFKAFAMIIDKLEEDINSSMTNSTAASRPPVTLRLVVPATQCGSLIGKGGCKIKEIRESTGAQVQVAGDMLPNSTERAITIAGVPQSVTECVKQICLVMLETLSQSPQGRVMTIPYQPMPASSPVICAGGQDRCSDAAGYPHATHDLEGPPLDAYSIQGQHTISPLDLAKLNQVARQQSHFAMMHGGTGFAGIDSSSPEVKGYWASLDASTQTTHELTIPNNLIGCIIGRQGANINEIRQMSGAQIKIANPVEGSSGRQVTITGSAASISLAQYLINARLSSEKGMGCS
T2 sequence (Q15365 1-169, chain 1 of 2): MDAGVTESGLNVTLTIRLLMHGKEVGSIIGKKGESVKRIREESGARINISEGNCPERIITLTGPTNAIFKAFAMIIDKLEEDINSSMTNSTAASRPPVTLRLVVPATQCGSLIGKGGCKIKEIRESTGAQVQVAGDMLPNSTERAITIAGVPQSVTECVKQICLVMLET
T2 sequence (Q15365 269-356, chain 2 of 2): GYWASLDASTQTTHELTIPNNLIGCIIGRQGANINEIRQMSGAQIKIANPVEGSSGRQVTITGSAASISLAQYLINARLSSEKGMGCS
T3 sequence (Q15365 1-169): as the sequence (Q15365 1-169, chain 1 of 2) above

B1: ILPR-iMfs (structured_DNA)
DNA: TGTCCCCACACCCCTGTCCCCACACCCCTGT
For the molecule B1, the binding result in data set [1] is given as “binds”.

B2: cMYC-iMfs-Br (structured_DNA)
DNA: AATCCCACCCCTCCCATCCCTTTTT
As to B2, the binding result in data set [2], in [3] and in data set [4] was “binds” throughout.

B3: cMYC-iMfs (structured_DNA)
DNA: AATCCCACCCCTCCCATCCCTT
Turning to B3, the binding result in data set [1], in [5] and in [6] was “binds” each time.

B4: mutC (ssDNA)
DNA: TACACTCACACTCACACTCACACTCAA
Regarding B4, the binding result in [7] is “no binding”.

B5: BCL2-Gall>T (structured_DNA)
DNA: CATCCCCTCTCCCTCCCCCTTCCTCCCTCTCCCTCCCCT
Turning to B5, in [8], the binding result was “binds”.

B6: C7T3-iMfs (structured_DNA)
DNA: CCCCCCCTTTCCCCCCCTTTCCCCCCCTTTCCCCCCC
For the molecule B6, in data set [9], the binding result was “binds”.

B7: hTeloC-iMfs (structured_DNA)
DNA: CCCTAACCCTAACCCTAACCCT
In the case of B7, the binding result in [1] was “binds”.

B8: BCL2-iMfs (structured_DNA)
DNA: CAGCCCCGCTCCCGCCCCCTTCCTCCCGCGCCCGCCCCT
Take B8: the binding result in [10] is “binds”.

B9: BCL2-G10TG12T (structured_DNA)
DNA: B8 DNA with G28T, G30T
For the molecule B9, the binding result in [8] is recorded as “binds”.
